In patent US20240270813A1 (UNIVERSITY OF PITTSBURGH OF THE COMMONWEALTH SYSTEM OF …, published 2024):
Substitutions are numbered along the chain they refer to. Values joined by “and” are separate entries in the source; they are usually repeats but may differ in a detail not shown here. Equal entries are not always repeated.

Biological target: T1, minor histocompatibility antigen HA-1, immunogenic H variant peptide on HLA-A*02:01 (human)
T1 peptide: VLHDDLLEA
Test: CD69 on TCR-transduced Jurkat J.RT3-T3.5-CD8; overnight with A*0201 LCLs (1:1) and titrated HA-1 H peptide; given as a range, upper bound given; full-length, on cells

B1: TCR B (TCR, V domains shown)
Valpha: SQQGEEDPQALSIQEGENATMNCSYKTSINNLQWYRQNSGRGLVHLILIRSNEREKHSGRLRVTLDTSKKSSSLLITASRAADTASYFCATAPGSGTYKYIFGTGTRLKVLA
Vbeta: DTGVSQDPRHKITKRGQNVTFRCDPISEHNRLYWYRQTLGQGPEFLTYFQNEAQLEKSRLLSDRFSAERPKGSFSTLEIQRTEQGDSAMYLCAAPPDTYNSPLHFGNGTRLTVT
Which EC50 of peptide does the source give for B1 here?
The EC50 of peptide was ≤ 100 ng/mL and ≤ 100 nM.

B2: TCR J (TCR, V domains shown)
Valpha: QKEVEQDPGPLSVPEGAIVSLNCTYSNSAFQYFMWYRQYSRKGPELLMYTYSSGNKEDGRFTAQVDKSSKYISLFIRDSQPSDSATYLCAMRATSGTYKYIFGTGTRLKVLA
Vbeta: DTGVSQDPRHKITKRGQNVTFRCDPISEHNRLYWYRQTLGQGPEFLTYFQNEAQLEKSRLLSDRFSAERPKGSFSTLEIQRTEQGDSAMYLCAVPGGSSYNEQFFGPGTRLTVL
Which EC50 of peptide does the source give for B2 here?
The EC50 of peptide was ≤ 100 ng/mL and ≤ 100 nM.

B3: TCR K (TCR, V domains shown)
Valpha: DAKTTQPNSMESNEEEPVHLPCNHSTISGTDYIHWYRQLPSQGPEYVIHGLTSNVNNRMASLAIAEDRKSSTLILHRATLRDAAVYYCILRAGSGTYKYIFGTGTRLKVLA
Vbeta: B2 Vbeta with V94S, P95S, G96P, S98T, S99V
How did the EC50 of peptide turn out when B3 was run?
The EC50 of peptide was ≤ 100 ng/mL and ≤ 100 nM.

B4: TCR H (TCR, V domains shown)
Valpha: GENVEQHPSTLSVQEGDSAVIKCTYSDSASNYFPWYKQELGKRPQLIIDIRSNVGEKKDQRIAVTLNKTAKHFSLHITETQPEDSAVYFCAAPLAGGGADGLTFGKGTHLIIQP
Vbeta: DTGVSQDPRHKITKRGQNVTFRCDPISEHNRLYWYRQTLGQGPEFLTYFQNEAQLEKSRLLSDRFSAERPKGSFSTLEIQRTEQGDSAMYLCASSTTLITGYTFGSGTRLTVV
For B4, which EC50 of peptide is on record?
Its EC50 of peptide is ≤ 100 ng/mL and ≤ 100 nM.

B5: TCR G (TCR, V domains shown)
Valpha: SQQGEEDPQALSIQEGENATMNCSYKTSINNLQWYRQNSGRGLVHLILIRSNEREKHSGRLRVTLDTSKKSSSLLITASRAADTASYFCAGTGANNLFFGTGTRLTVIP
Vbeta: DTGVSQDPRHKITKRGQNVTFRCDPISEHNRLYWYRQTLGQGPEFLTYFQNEAQLEKSRLLSDRFSAERPKGSFSTLEIQRTEQGDSAMYLCASSLIRGETQYFGPGTRLLVL
Which EC50 of peptide does the source give for B5 here?
Its EC50 of peptide is ≤ 100 ng/mL and ≤ 100 nM.

B6: TCR M (TCR, V domains shown)
Valpha: KQEVTQIPAALSVPEGENLVLNCSFTDSAIYNLQWFRQDPGKGLTSLLLIQSSQREQTSGRLNASLDKSSGRSTLYIAASQPGDSATYLCAVRGSTSGTYKYIFGTGTRLKVLA
Vbeta: B5 Vbeta with I97V, R98A
For B6, which EC50 of peptide is on record?
Its EC50 of peptide is ≤ 100 ng/mL and ≤ 100 nM.

B7: TCR I (TCR, V domains shown)
Valpha: B6 Valpha with S95T
Vbeta: B5 Vbeta with L96F, I97L, R98A
How did the EC50 of peptide turn out when B7 was run?
The EC50 of peptide was ≤ 100 ng/mL and ≤ 100 nM.

B8: TCR N (TCR, V domains shown)
Valpha: GENVEQHPSTLSVQEGDSAVIKCTYSDSASNYFPWYKQELGKRPQLIIDIRSNVGEKKDQRIAVTLNKTAKHFSLHITETQPEDSAVYFCAAIVGNQFYFGTGTSLTVIP
Vbeta: B5 Vbeta with L96E, I97T, R98T, G99L, E100S, T101E, Y103F, L111T
For B8, which EC50 of peptide is on record?
The EC50 of peptide was ≤ 100 ng/mL and ≤ 100 nM.

B9: TCR L (TCR, V domains shown)
Valpha: KQEVTQIPAALSVPEGENLVLNCSFTDSAIYNLQWFRQDPGKGLTSLLLIQSSQREQTSGRLNASLDKSSGRSTLYIAASQPGDSATYLCAVTRTGANNLFFGTGTRLTVIP
Vbeta: DTGVSQDPRHKITKRGQNVTFRCDPISEHNRLYWYRQTLGQGPEFLTYFQNEAQLEKSRLLSDRFSAERPKGSFSTLEIQRTEQGDSAMYLCASSLGVLGIGYTFGSGTRLTVV
For B9, which EC50 of peptide is on record?
The EC50 of peptide was ≤ 100 ng/mL and ≤ 100 nM.
